What follows are sequences tested on Escherichia coli TOP10 (assay: shrunken log2 fold change of peptide-encoding DNA abundance (4.5 h post-induction vs induction); higher = less antimicrobial activity (less host growth inhibition)). Conditions: time post-induction: 4.5 h; library: site-saturation at positions 5, 18, 19, 20.
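Further: peptides expressed intracellularly from a pBAD plasmid library in pooled LB shake-flask culture, induced with 0.3% L-arabinose, DNA abundance read by NGS, three biological replicates, DESeq2 with apeglm shrinkage.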

Row | Sequence | shrunken log2 fold change
1 | RRIRGRPPRLPRPRPRPQMMPRP | 0.112
2 | RRIRWRPPRLPRPRPRPQSAPRP | 0.372
3 | RRIRSRPPRLPRPRPRPGKHPRP | 0.0205
4 | RRIRQRPPRLPRPRPRPNKEPRP | 0.00917
5 | RRIRWRPPRLPRPRPRPIYSPRP | -0.0292
6 | RRIRFRPPRLPRPRPRPLTEPRP | -0.331
7 | RRIRTRPPRLPRPRPRPSQFPRP | -0.302
8 | RRIRPRPPRLPRPRPRPIQPPRP | -0.0445
9 | RRIRRRPPRLPRPRPRPDHRPRP | -0.00663
10 | RRIRIRPPRLPRPRPRPAMRPRP | 1.37
11 | RRIRCRPPRLPRPRPRPCKNPRP | -0.194
12 | RRIRVRPPRLPRPRPRPCVYPRP | -0.136
13 | RRIRCRPPRLPRPRPRPEYCPRP | -0.0902
14 | RRIRPRPPRLPRPRPRPDRKPRP | -0.124
15 | RRIRNRPPRLPRPRPRPMRAPRP | 0.517
16 | RRIRYRPPRLPRPRPRPVNKPRP | -0.0557
17 | RRIRSRPPRLPRPRPRPPCCPRP | -0.107
18 | RRIRTRPPRLPRPRPRPFACPRP | -0.198
19 | RRIRDRPPRLPRPRPRPSFSPRP | -0.0351
20 | RRIRQRPPRLPRPRPRPLHDPRP | -0.346
21 | RRIRARPPRLPRPRPRPARPPRP | 0.827
22 | RRIRLRPPRLPRPRPRPNYSPRP | -0.718
23 | RRIRTRPPRLPRPRPRPHNTPRP | -0.346
24 | RRIRARPPRLPRPRPRPRWDPRP | 0.768
25 | RRIRKRPPRLPRPRPRPLEPPRP | 0.238

Row | Sequence | shrunken log2 fold change
26 | RRIRKRPPRLPRPRPRPNPEPRP | 0.0292
27 | RRIRSRPPRLPRPRPRPIYAPRP | 0.0432
28 | RRIRPRPPRLPRPRPRPVRQPRP | 0.219
29 | RRIRTRPPRLPRPRPRPDYQPRP | -0.0545
30 | RRIRDRPPRLPRPRPRPCCEPRP | 0.961
31 | RRIRTRPPRLPRPRPRPFTGPRP | -0.12
32 | RRIRPRPPRLPRPRPRPQIRPRP | -0.207
33 | RRIRQRPPRLPRPRPRPWYCPRP | -1.83
34 | RRIRCRPPRLPRPRPRPQYTPRP | -0.946
35 | RRIRSRPPRLPRPRPRPEWTPRP | 0.329
36 | RRIRKRPPRLPRPRPRPEQLPRP | -0.0173
37 | RRIRARPPRLPRPRPRPTRLPRP | 0.545
38 | RRIRQRPPRLPRPRPRPLTKPRP | 0.184
39 | RRIRKRPPRLPRPRPRPNFMPRP | -0.117
40 | RRIRMRPPRLPRPRPRPRAMPRP | 1.42
41 | RRIRERPPRLPRPRPRPKGNPRP | 0.139
42 | RRIRSRPPRLPRPRPRPKRGPRP | 0.0665
43 | RRIRSRPPRLPRPRPRPSCFPRP | -0.197
44 | RRIRCRPPRLPRPRPRPDSRPRP | 0.0735
45 | RRIRCRPPRLPRPRPRPTVMPRP | 0.0757
46 | RRIRYRPPRLPRPRPRPVDYPRP | -0.213
47 | RRIRQRPPRLPRPRPRPKRAPRP | 0.0973
48 | RRIRLRPPRLPRPRPRPNQAPRP | -0.0446
49 | RRIRPRPPRLPRPRPRPPVFPRP | 0.308
50 | RRIRSRPPRLPRPRPRPCVDPRP | 0.00587

Row | Sequence | shrunken log2 fold change
51 | RRIRLRPPRLPRPRPRPSIRPRP | -0.727
52 | RRIRMRPPRLPRPRPRPSSMPRP | -0.0815
53 | RRIRIRPPRLPRPRPRPQVFPRP | -0.0107
54 | RRIRQRPPRLPRPRPRPDWQPRP | 0.0854
55 | RRIRKRPPRLPRPRPRPGVDPRP | 0.824
56 | RRIRQRPPRLPRPRPRPANCPRP | 0.0322
57 | RRIRSRPPRLPRPRPRPKQQPRP | 0.741
58 | RRIRGRPPRLPRPRPRPQHRPRP | 0.212
59 | RRIRPRPPRLPRPRPRPHFNPRP | -0.433
60 | RRIRYRPPRLPRPRPRPKVCPRP | 0.0165
61 | RRIRKRPPRLPRPRPRPNCWPRP | 0.621
62 | RRIRGRPPRLPRPRPRPERDPRP | 0.955
63 | RRIRRRPPRLPRPRPRPGRKPRP | 0.332
64 | RRIRSRPPRLPRPRPRPYAEPRP | -0.235
65 | RRIRPRPPRLPRPRPRPATQPRP | 0.133
66 | RRIRQRPPRLPRPRPRPVLCPRP | -0.238
67 | RRIRPRPPRLPRPRPRPLYKPRP | -0.247
68 | RRIRGRPPRLPRPRPRPPQVPRP | 0.791
69 | RRIRERPPRLPRPRPRPTQQPRP | 0.0931
70 | RRIRTRPPRLPRPRPRPNVKPRP | -0.137
71 | RRIRYRPPRLPRPRPRPRPMPRP | -0.227
72 | RRIRHRPPRLPRPRPRPSTVPRP | 0.00256
73 | RRIRWRPPRLPRPRPRPKFVPRP | 0.295
74 | RRIRCRPPRLPRPRPRPDHPPRP | 0.264
75 | RRIRLRPPRLPRPRPRPPMRPRP | 1

From the supplement of paper PMC9112550, “Optimization of the antimicrobial peptide Bac7 by deep mutational scanning” (BMC Biology, 2022)
